Source: article PMC5016158

Biological target: Lucy-Flag-rsstr3-TAS2R14-HSV (rat | human) (UniProt P30936)
UniProt P30936, sequence (P30936 whole entry): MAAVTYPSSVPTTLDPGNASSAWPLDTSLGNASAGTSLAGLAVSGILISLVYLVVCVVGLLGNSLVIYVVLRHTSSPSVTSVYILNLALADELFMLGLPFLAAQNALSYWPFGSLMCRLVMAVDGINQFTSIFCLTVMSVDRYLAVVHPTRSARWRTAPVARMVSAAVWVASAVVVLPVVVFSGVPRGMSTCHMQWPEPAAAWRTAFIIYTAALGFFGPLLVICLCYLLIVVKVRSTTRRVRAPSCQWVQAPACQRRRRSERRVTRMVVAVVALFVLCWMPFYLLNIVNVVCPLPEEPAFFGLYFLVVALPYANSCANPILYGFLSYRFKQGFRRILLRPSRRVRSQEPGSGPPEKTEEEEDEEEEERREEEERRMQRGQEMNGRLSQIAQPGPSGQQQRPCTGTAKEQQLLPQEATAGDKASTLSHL

Substance “HA-β2AR (from UniProt P07550 1-413) (receptor)” has an impairment by ISO (10 uM) of the relaxation of HASM cells (endogenous receptors) to the TAS2R14 agonist FFA (100 uM), magnetic twisting cytometry of 50%.
